Source: a protein production outcome set (Wang et al. 2014)

Test: label from the status in PepcDB records

Row | Sequence | protein production
1 | MSSLFNVNAQFWASLIDSPLKILVHILDIAIVSWLIYKFIKALAGTKVMSLVQGVVLFVLFKFVAEFLGFTTIAFLMNQVITYGVIAGVVIFAPEIRSGLERFGRTPQSFIQRQQLSDDEKLVAAFVKAVAYMSPRKIGALVSIEETQTLREYIATGIPLDADISGELLINIFIPNTPLHDGAVIVEGNKIAVSCAYLPLSESSHISKEFGTRHRAAIGLSEASDAFTFVVSEETGAISVAYKGDFIHDLSLEAFEVLLREHFIKEEPKKKNWMKQFFGGRHHV | failed
2 | MSSLKGKRIGFGLTGSHCTYEAVFPQIEELVNEGAEVRPVVTFNVKSTNTRFGEGAEWVKKIEDLTGYEAIDSIVKAEPLGPKLPLDCMVIAPLTGNSMSKLANAMTDSPVLMAAKATIRNNRPVVLGISTNDALGLNGTNLMRLMSTKNIFFIPFGQDDPFKKPNSMVAKMDLLPQTIEKALMHQQLQPILVENYQGND | failed
3 | MSSLVQSVDWLAIAPPTLAAVVGLVVLVADLFIGDHKKALLGWVSVAGLAASALLLLPLLDGDRATFCLTGDANTCSYTADHFTLAIQFLVLGGALLAALLSVTALKDADREIPEGEFWFLLLSSAAGAALLPASRDLATLIVALEVASLPAFALVGIKRGDKKSSEAALKFFLSSVTATAVSLMGVSFVYASTGTLYLTEIARKIQHVDGQLHTLAQTGVVLTLVGFAFKTAAVPFHFWVPDTYVGAPLPIAAYLSVVGKAVGFSGLILVTVVAFPSYADVWGPALAALAALTMTVGNVGALRQQATRAYSAVRLLAWSSVGQAGYLLVPIAAAAYSKDAEKAIGSTVAYALMYAAVNLGAFAVAALVGRTKVLNRVSDYRGLYASNPLAALLLGFFLLCLAGLPPGIIGLFAKVTVFSAAVDAGLGWLAVVMAVNVVIALFYYLQWTTLLFRAPEGEPEKHRVPAPLTAAIALTAVLGVALSGAPQLVLRFSDTGLF | failed
4 | MSSNASTEKQHAGGEKTVKAEPQSTSSQKDSTDDYQPNSQVTDDRTLHKVGQTFSDDKGKAVLKDIKQVNKTYKIGDVELTVKEMKLIHLRPDYSMIDYFHELTHDEEFDFVKVFVDIKNTSTKKVNVAPIALMKTNTGETFDWNKDIYLEELNGELEGGAEKSGNLGFIVNASSGHAHDKAADAEKKTKEIKWIEITTSDVFDHNHKKISDAQKIKIKFLEHHHHHH | not failed
5 | MSSNECFKCGRSGHWARECPTGGGRGRGMRSRGRGFQFVSSSLPDICYRCGESGHLAKDCDLQEDACYNCGRGGHIAKDCKEPKREREQCCYNCGKPGHLARDCDHADEQKCYSCGEFGHIQKDCTKVKCYRCGETGHVAINCSKTSEVNCYRCGESGHLARECTIEATA | failed
6 | MSSNNVTTDVVSVDEQAFENAGGQAVDEDGFPVVDETPAFEAEVEQETQAKVDANHPDGIADTSEDRIHGVTLEQEERIRAREAELERISAQAELGTQDGREQRTRAVAAEGSTERRREFQQRAASVEPMADPERDDPRAELSQDELATVNTEADRLATRLDGWSRAAISRRLAEAIVDGRDLTSAVVRVFEELQTAPGGTVPIDALEDIDRKEVSVEGRVTQLWEPSSPSIAQVGLIEDESGRTKLTSWKASDAPWIEEGERVRIHGAAKNWYNGRVSVAVTGWSTLHFPERGRWWDE | failed
7 | MSSNPTSSVREFEYKAEMKQLLNLIVHSLYTHPEIFLRELISNASDALGKARFRMLSSDEGLDKSGDLKITITVDKESGSFVIEDTGIGMSEEELISNLGTVASSGTLGFMEALKEQQKEGQRLDANLIGQFGVGFYSVFMVTDEVTVETKSIESGLQGWRWKSSGQGSYTIEPVEREARGTRISFILKEEFREFAQEYRVEQIIKKYSNFVEYPIYIGSRQINSMTALWQRPKSELKQEEVNEFYKFIANDFKDPLDYLHVSVEGAVSFKALLFIPSEAPMELLYNQGALEKRGPQLYVKKVLIQHECRDLLPEYLRFVSGVVDTEDLPLNVSRELVQASPVMAKIKQILTTKLLGWFDTIAKEEPEKFRAFYKAFGTILKIGLNTDFTNRDKLIDLLRFETTKTVEGEYVTLKEYVGRMAEGQTEIYYHSGSSRAQMLAHPNLEYFRKRDIEVLLLSDPVDVFVIPSIFEYDKKPLKSIEKAEIDMSTVEPEGERLSAEGTVGVISLFKEVLGERVADVVESRRLVSSPVTLVSGKDALDSQFEKMMKMMNKDADMPSTKKILEINTAHPIIRNLAGKHAVGLSTDPVVRAAVTQLFESALLLEGDLESVADYVSRMNELVEAATRS | failed
